Experimental data taken from patent CN114907476A (SHANGHAI PHARMACEUTICALS HOLDING CO LTD, dated 2022).
Where two headings read alike, the source gives them in different places.

T1: 表达于CHOK1细胞表面的人TIGIT (CHOK1/人TIGIT细胞, 吉满生物 GM-C01116) (human, UniProt Q495A1 22-244)
T1 construct: whole, on cells; Purchased cell line; also called CHOK1/hTIGIT
T1 sequence (looked up): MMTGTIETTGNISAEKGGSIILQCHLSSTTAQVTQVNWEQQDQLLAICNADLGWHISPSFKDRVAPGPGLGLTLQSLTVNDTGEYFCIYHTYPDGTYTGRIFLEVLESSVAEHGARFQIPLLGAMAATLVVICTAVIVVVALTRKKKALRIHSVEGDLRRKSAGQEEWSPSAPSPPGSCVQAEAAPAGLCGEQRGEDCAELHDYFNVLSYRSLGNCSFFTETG

T2: SPH-B011-A-Antigen-his蛋白 (人TIGIT) (human, UniProt Q495A1 22-141, limits assumed)
T2 construct: Analyte of the Biacore assay; also called 抗原(人TIGIT); not shown: his tag
T2 sequence (looked up): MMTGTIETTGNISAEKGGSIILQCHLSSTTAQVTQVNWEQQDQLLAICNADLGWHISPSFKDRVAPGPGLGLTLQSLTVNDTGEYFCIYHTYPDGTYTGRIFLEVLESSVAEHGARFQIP


Columns and labels:
[1] = target: T1, 表达于CHOK1细胞表面的人TIGIT (CHOK1/人TIGIT细胞, …); assay: flow cytometry competition, EC50 of % inhibition of Biotinylated-CD155 (0.6μg/ml) binding to CHOK1/hTIGIT cells
[2] = target: T1, 表达于CHOK1细胞表面的人TIGIT (CHOK1/人TIGIT细胞, …); assay: flow cytometry competition, inhibition of Biotinylated-CD155 (0.6μg/ml) binding to CHOK1/human TIGIT cells
[3] = target: T1, 表达于CHOK1细胞表面的人TIGIT (CHOK1/人TIGIT细胞, …); assay: flow cytometry on CHOK1/hTIGIT cells
[4] = target: Jurkat-hTIGIT-NFAT-CD226细胞上过表达的人TIGIT (human); assay: cell-based or functional assay
[5] = target: Jurkat-hTIGIT-NFAT-CD226细胞上过表达的人TIGIT (human); assay: cell-based or functional assay; remark: listed apart in the source
[6] = target: T1, 表达于CHOK1细胞表面的人TIGIT (CHOK1/人TIGIT细胞, …); assay: flow cytometry competition, EC50 of % inhibition of Biotinylated-CD155 (0.6μg/ml) binding to CHOK1/human TIGIT cells
[7] = target: T1, 表达于CHOK1细胞表面的人TIGIT (CHOK1/人TIGIT细胞, …); assay: flow cytometry competition, inhibition of Biotinylated-CD155 (0.6μg/ml) binding to CHOK1/hTIGIT cells
[8] = target: T1, 表达于CHOK1细胞表面的人TIGIT (CHOK1/人TIGIT细胞, …); assay: flow cytometry on CHOK1/hTIGIT cells, EC50 of MFI
[9] = target: T2, SPH-B011-A-Antigen-his蛋白 (人TIGIT); assay: Biacore, antibody captured on anti-Fc CM5 chip, human TIGIT-his 100nM as analyte, 25℃

Chain of Jurkat-hTIGIT-NFAT-CD226细胞上过表达的人TIGIT (human) (Q495A1 whole entry): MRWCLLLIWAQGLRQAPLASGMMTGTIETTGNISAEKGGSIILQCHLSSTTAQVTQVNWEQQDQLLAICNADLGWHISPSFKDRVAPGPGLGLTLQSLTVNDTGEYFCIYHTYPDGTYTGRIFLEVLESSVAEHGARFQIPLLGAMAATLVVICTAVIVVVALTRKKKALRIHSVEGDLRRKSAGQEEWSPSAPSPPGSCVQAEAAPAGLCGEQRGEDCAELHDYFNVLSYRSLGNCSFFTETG

| EC50 [1] [µg/mL] | 最大抑制 [2] [%] | 最大MFI [3] [MFI] | EC50(μg/ml)of RLU [4] [µg/mL] | 最大RLU [4] [RLU] | EC50(μg/ml)of RLU [5] [µg/mL] | Max RLU [5] [RLU] | EC50 [6] [µg/mL] | 最大抑制 [7] [%] | EC50 [8] [µg/mL] | Kd [9] [nM] | koff [9] [s⁻¹] | kon [9] [M⁻¹ s⁻¹] | Binder |
| --- | --- | --- | --- | --- | --- | --- | --- | --- | --- | --- | --- | --- | --- |
| 0.309 | 100 | 10300 | 0.534 | 8840 | 0.357 | 9610 | 0.103 | 100 | 0.214 | – | – | – | 阳性对照抗体P4 (antibody, human IgG1, kappa, V domains shown, Positive control anti-TIGIT antibody) VH: EVQLQQSGPGLVKPSQTLSLTCAISGDSVSSNSAAWNWIRQSPSRGLEWLGKTYYRFKWYSDYAVSVKGRITINPDTSKNQFSLQLNSVTPEDTAVFYCTRESTTYDLLAGPFDYWGQGTLVTVSS VL: not shown |
| 0.406 | – | 10600 | – | – | 1.01 | 9210 | – | 99.6 | 0.312 | 4.3 | 0.00241 | 560000 | 人源化抗TIGIT抗体A2 (antibody, human IgG1, kappa, V domains shown, Humanized) VH: QLQLVQSGAEVKKPGASVKVSCKASGYSFTDYNMNWVRQAPGQSLEWIGVINPNHGTISYNQKFKGRVTMTRDQSTSTAYMELNSLRSEDTAVYYCANNWDVWYFDVWGQGTLVTVSS VL: DIQMTQSPSSLSASVGDRVTITCRPSENIYSYLAWYQQKPGKAPKLLVYNAKALAEGVPSRFSGSGSGTDFTLTISSLQPEDFATYYCQHHFGAPWTFGQGTKVEIKR |
| 0.427 | – | 10200 | – | – | 0.782 | 9370 | – | 99.6 | 0.329 | 4.66 | 0.00225 | 483000 | 人源化抗TIGIT抗体A3 (antibody, human IgG1, kappa, V domains shown, Humanized) VH: QLQLVQSGAEVKKPGASVKVSCKASGYSFTDYNMNWVRQAPGQSLEWIGVINPNHGTISYNQKFKGRVTMTRDQSTSTAYMELNSLRSEDTAVYYCANNWDVWYFDVWGQGTLVTVSS VL: DIQMTQSPSSLSASVGDRVTITCRPSENIYSYLAWYQQKPGNAPKLLVYNAKALAEGVPSRFSGSGSGTQFTLTISSLQPEDFATYYCQHHFGAPWTFGQGTKVEIKR |
| 0.27 | – | 10100 | – | – | 0.847 | 8810 | – | 99.5 | 0.496 | 4.85 | 0.00257 | 529000 | 人源化抗TIGIT抗体A4 (antibody, human IgG1, kappa, V domains shown, Humanized) VH: QLQLVQSGAEVKKPGASVKVSCKASGYSFTDYNMNWVRQAPGQSLEWIGVINPNHGTISYNQKFKGRVTMTRDQSTSTAYMELNSLRSEDTAVYYCANNWDVWYFDVWGQGTLVTVSS VL: DIQMTQSPSSLSASVGDRVTITCRPSENIYSYLAWYQQKPGNSPKLLVYNAKALAEGVPSRFSGSGSGTQFTLTISSLQPEDFATYYCQHHFGAPWTFGGGTKVEIKR |
| 0.43 | – | 10800 | – | – | 1.18 | 8950 | – | 99.3 | 0.36 | 4.62 | 0.00251 | 544000 | 人源化抗TIGIT抗体A1 (antibody, human IgG1, kappa, V domains shown, Humanized) VH: QLQLVQSGAEVKKPGASVKVSCKASGYSFTDYNMNWVRQAPGQSLEWIGVINPNHGTISYNQKFKGRVTMTRDQSTSTAYMELNSLRSEDTAVYYCANNWDVWYFDVWGQGTLVTVSS VL: DIQMTQSPSSLSASVGDRVTITCRPSENIYSYLAWYQQKPGKAPKLLIYNAKALAEGVPSRFSGSGSGTDFTLTISSLQPEDFATYYCQHHFGAPWTFGQGTKVEIKR |
| 0.384 | 99.8 | 9890 | 0.922 | 8260 | 1.32 | 9270 | 0.138 | 99.2 | ~0.139 | – | – | – | 嵌合抗TIGIT抗体A0 (antibody, human IgG1, kappa, V domains shown, also called B011-A-142E4C5) VH: ELQLQQSGPELVKPGASVKISCKASGYSFTDYNMNWVKQSNGKSLEWIGVINPNHGTISYNQKFKGKATLTVDQSSSTAYMQLNSLTSEDSAVYYCANNWDVWYFDVWGTGTTVTVSS VL: DIQMTQSPASLSASVGETVTITCRPSENIYSYLAWYRQKQGNSPQLLVYNAKALAEGVPSRFSGSGSGTQFSLKINSLQPEDFGSYYCQHHFGAPWTFGGGTKLEIKR |
| 0.306 | 99.7 | 13500 | 0.633 | 9080 | 0.305 | 10500 | 0.189 | 100 | 0.264 | – | – | – | 阳性对照抗体P1 (antibody, human IgG1, kappa, V domains shown, Positive control anti-TIGIT antibody) VH: QVQLQESGPGLVKPSETLSLTCTVSGGSVSSGIYYWSWIRQPPGKGLEWIGYIYYSGSTNYNPSLKSRVTISVDTSKNQFSLKLSSVTAADTAVYYCARDYYVSGNYYNVDYYFFGVDVWGQGTTVTVSS VL: EIVLTQSPATLSLSPGERATLSCRASQSVSSYLAWYQQKPGQAPRLLIYDASNRATGIPARFSGSGSGTDFTLTISSLEPEDFAVYYCQQRSNWPPLFTFGPGTKVDIKR |
